From the supplement of paper PMC5998384 come the findings set out here.

Series [1] concerns HeLa Kyoto. The series can be described thus: melting temperature (median over replicates), in situ; higher = more thermally stable.
The subject of series [2] is HeLa Kyoto. The series can be described thus: solubility change mitosis vs G1/S (difference of NP-40 vs SDS log2 ratios) (log2 ratio difference); higher = more soluble in mitosis.
The subject of series [3] is HeLa Kyoto. The series can be described thus: thermal stability score vs G1/S (z-score of summed log2 fold changes over temperatures); higher = more thermally stable than in G1/S.
Series [4] deals with HeLa Kyoto. Nature of the series: solubility in G1/S (NP-40 vs SDS abundance) (log2 ratio); higher = more soluble. Particulars: cell cycle stage: G1/S.
Where [5] appears, read: cell cycle stage: early G1 (4.5 h after nocodazole release).
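For melting temperature (median over replicates), in situ in this document: HeLa Kyoto cells synchronized by double thymidine or nocodazole block, proteins quantified by TMT10plex mass spectrometry, three independent biological replicates.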
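For solubility change mitosis vs G1/S (difference of NP-40 vs SDS log2 ratios) in this document: synchronized HeLa Kyoto cells (double thymidine block for G1/S, nocodazole release for mitosis), protein amounts in NP-40 versus SDS lysates quantified by mass spectrometry, three biological replicates.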
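For solubility in G1/S (NP-40 vs SDS abundance) in this document: HeLa Kyoto cells arrested at G1/S by double thymidine block, proteins quantified by TMT10plex mass spectrometry in mild NP-40 versus SDS extracts, three biological replicates.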
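For thermal stability score vs G1/S (z-score of summed log2 fold changes over temperatures) in this document: synchronized HeLa Kyoto cells, proteins quantified by TMT10plex mass spectrometry, three biological replicates, mitosis taken 0.5 h after nocodazole release, G1/S directly after double thymidine block.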

For the sequence “MRAVRRGLREGGAMAAARDPPEVSLREATQRKLRRFSELRGKLVARGEFWDIVAITAADEKQELAYNQQLSEKLKRKELPLGVQYHVFVDPAGAKIGNGGSTLCALQCLEKLYGDKWNSFTILLIHSGGYSQRLPNASALGKIFTALPLGNPIYQMLELKLAMYIDFPLNMNPGILVTCADDIELYSIGEFEFIRFDKPGFTALAHPSSLTIGTTHGVFVLDPFDDLKHRDLEYRSCHRFLHKPSIEKMYQFNAVCRPGNFCQQDFAGGDIADLKLDSDYVYTDSLFYMDHKSAKMLLAFYEKIGTLSCEIDAYGDFLQALGPGATVEYTRNTSNVIKEESELVEMRQRIFHLLKGTSLNVVVLNNSKFYHIGTTEEYLFYFTSDNSLKSELGLQSITFSIFPDIPECSGKTSCIIQSILDSRCSVAPGSVVEYSRLGPDVSVGENCIISGSYILTKAALPAHSFVCSLSLKMNRCLKYATMAFGVQDNLKKSVKTLSDIKLLQFFGVCFLSCLDVWNLKVTEELFSGNKTCLSLWTARIFPVCSSLSDSVITSLKMLNAVKNKSAFSLNSYKLLSIEEMLIYKDVEDMITYREQIFLEISLKSSLM [FPGT]”, the melting temperature in the series on HeLa Kyoto [1] (cell cycle stage: G1/S) amounted to 54.4 °C; in the series with HeLa Kyoto [1] (cell cycle stage: mitosis), 55.1 °C. In the series on HeLa Kyoto [2], the “solubility change mitosis (log2)” value is -0.353. The thermal stability score is 1.19 in the series on HeLa Kyoto [3] (setting [5]) and 2.29 with HeLa Kyoto [3] (cell cycle stage: mitosis). In addition, the “solubility in G1/S (log2)” value in the series on HeLa Kyoto [4] amounted to 0.115.
Consider “MRECISVHVGQAGVQMGNACWELYCLEHGIQPDGQMPSDKTIGGGDDSFTTFFCETGAGKHVPRAVFVDLEPTVIDEIRNGPYRQLFHPEQLITGKEDAANNYARGHYTIGKEIIDPVLDRIRKLSDQCTGLQGFLVFHSFGGGTGSGFTSLLMERLSVDYGKKSKLEFSIYPAPQVSTAVVEPYNSILTTHTTLEHSDCAFMVDNEAIYDICRRNLDIERPTYTNLNRLISQIVSSITASLRFDGALNVDLTEFQTNLVPYPRIHFPLATYAPVISAEKAYHEQLSVAEITNACFEPANQMVKCDPRHGKYMACCLLYRGDVVPKDVNAAIAAIKTKRSIQFVDWCPTGFKVGINYQPPTVVPGGDLAKVQRAVCMLSNTTAIAEAWARLDHKFDLMYAKRAFVHWYVGEGMEEGEFSEAREDMAALEKDYEEVGIDSYEDEDEGEE [TUBA4A]”, for which the melting temperature in the series on HeLa Kyoto [1] (cell cycle stage: G1/S) worked out at 55.6 °C; in the series with HeLa Kyoto [1] (cell cycle stage: mitosis), 54.2 °C. Further, in the series on HeLa Kyoto [2], the “solubility change mitosis (log2)” value was -0.138. Further, the thermal stability score in the series with HeLa Kyoto [3] (setting [5]) was -0.775; in the series on HeLa Kyoto [3] (cell cycle stage: mitosis) it was -2.94. In the series with HeLa Kyoto [4], the “solubility in G1/S (log2)” value stood at 0.111.
Consider “MREIVHIQAGQCGNQIGTKFWEVISDEHGIDPAGGYVGDSALQLERINVYYNESSSQKYVPRAALVDLEPGTMDSVRSGPFGQLFRPDNFIFGQTGAGNNWAKGHYTEGAELVDAVLDVVRKECEHCDCLQGFQLTHSLGGGTGSGMGTLLISKIREEFPDRIMNTFSVMPSPKVSDTVVEPYNATLSVHQLVENTDETYCIDNEALYDICFRTLKLTTPTYGDLNHLVSATMSGVTTSLRFPGQLNADLRKLAVNMVPFPRLHFFMPGFAPLTSRGSQQYRALTVPELTQQMFDARNMMAACDPRHGRYLTVATVFRGPMSMKEVDEQMLAIQSKNSSYFVEWIPNNVKVAVCDIPPRGLKMASTFIGNSTAIQELFKRISEQFSAMFRRKAFLHWFTGEGMDEMEFTEAESNMNDLVSEYQQYQDATANDGEEAFEDEEEEIDG [TUBB6]”, for which the melting temperature was determined as 54.8 °C with HeLa Kyoto [1] (cell cycle stage: G1/S) and 53.8 °C in the series on HeLa Kyoto [1] (cell cycle stage: mitosis). The “solubility change mitosis (log2)” value in the series on HeLa Kyoto [2] was -0.124. Besides, the thermal stability score is -0.862 in the series with HeLa Kyoto [3] (setting [5]) and -2.31 in the series on HeLa Kyoto [3] (cell cycle stage: mitosis). In the series with HeLa Kyoto [4], the “solubility in G1/S (log2)” value is 0.0985.
Consider “MREYKVVVLGSGGVGKSALTVQFVTGTFIEKYDPTIEDFYRKEIEVDSSPSVLEILDTAGTEQFASMRDLYIKNGQGFILVYSLVNQQSFQDIKPMRDQIVRVKRYEKVPLILVGNKVDLEPEREVMSSEGRALAQEWGCPFMETSAKSKSMVDELFAEIVRQMNYSSLPEKQDQCCTTCVVQ [RAP2C]”, for which the melting temperature came to 56.9 °C in the series on HeLa Kyoto [1] (cell cycle stage: G1/S) and 55.4 °C in the series with HeLa Kyoto [1] (cell cycle stage: mitosis). Also, the “solubility change mitosis (log2)” value with HeLa Kyoto [2] is -0.0697. Besides, the thermal stability score with HeLa Kyoto [3] (setting [5]) is 1.5; in the series on HeLa Kyoto [3] (cell cycle stage: mitosis), -1.73. The “solubility in G1/S (log2)” value in the series on HeLa Kyoto [4] was found to be 0.0732.
As for “MRGEQGAAGARVLQFTNCRILRGGKLLREDLWVRGGRILDPEKLFFEERRVADERRDCGGRILAPGFIDVQINGGFGVDFSQATEDVGSGVALVARRILSHGVTSFCPTLVTSPPEVYHKVVPQIPVKSGGPHGAGVLGLHLEGPFISREKRGAHPEAHLRSFEADAFQDLLATYGPLDNVRIVTLAPELGRSHEVIRALTARGICVSLGHSVADLRAAEDAVWSGATFITHLFNAMLPFHHRDPGIVGLLTSDRLPAGRCIFYGMIADGTHTNPAALRIAHRAHPQGLVLVTDAIPALGLGNGRHTLGQQEVEVDGLTAYVAGTKTLSGSIAPMDVCVRHFLQATGCSMESALEAASLHPAQLLGLEKSKGTLDFGADADFVVLDDSLHVQATYISGELVWQADAARQ [AMDHD2]”, the melting temperature amounted to 55.1 °C in the series with HeLa Kyoto [1] (cell cycle stage: G1/S) and 54.3 °C with HeLa Kyoto [1] (cell cycle stage: mitosis). Besides, in the series with HeLa Kyoto [2], the “solubility change mitosis (log2)” value is -0.0923. For the same sequence, the thermal stability score in the series with HeLa Kyoto [3] (setting [5]) is -1.01; in the series on HeLa Kyoto [3] (cell cycle stage: mitosis) it was -2.12. Further, in the series with HeLa Kyoto [4], the “solubility in G1/S (log2)” value was -0.0483.
As to “MRGFGPGLTARRLLPLRLPPRPPGPRLASGQAAGALERAMDELLRRAVPPTPAYELREKTPAPAEGQCADFVSFYGGLAETAQRAELLGRLARGFGVDHGQVAEQSAGVLHLRQQQREAAVLLQAEDRLRYALVPRYRGLFHHISKLDGGVRFLVQLRADLLEAQALKLVEGPDVREMNGVLKGMLSEWFSSGFLNLERVTWHSPCEVLQKISEAEAVHPVKNWMDMKRRVGPYRRCYFFSHCSTPGEPLVVLHVALTGDISSNIQAIVKEHPPSETEEKNKITAAIFYSISLTQQGLQGVELGTFLIKRVVKELQREFPHLGVFSSLSPIPGFTKWLLGLLNSQTKEHGRNELFTDSECKEISEITGGPINETLKLLLSSSEWVQSEKLVRALQTPLMRLCAWYLYGEKHRGYALNPVANFHLQNGAVLWRINWMADVSLRGITGSCGLMANYRYFLEETGPNSTSYLGSKIIKASEQVLSLVAQFQKNSKL [MLYCD]”, the melting temperature in the series with HeLa Kyoto [1] (cell cycle stage: G1/S) came out at 52.7 °C; in the series with HeLa Kyoto [1] (cell cycle stage: mitosis) it was 54.3 °C. Further, the “solubility change mitosis (log2)” value in the series with HeLa Kyoto [2] is -0.194. For the same sequence, the thermal stability score was -0.712 in the series on HeLa Kyoto [3] (setting [5]) and -1.19 in the series on HeLa Kyoto [3] (cell cycle stage: mitosis). For the same sequence, the “solubility in G1/S (log2)” value in the series on HeLa Kyoto [4] was found to be 0.0216.
